In US20100330066A1:

Target: murine BAFF (murine) (UniProt Q9WU72)
Assay: cell-based or functional assay

Chain of UniProt Q9WU72 (Q9WU72 127-309 limits assumed): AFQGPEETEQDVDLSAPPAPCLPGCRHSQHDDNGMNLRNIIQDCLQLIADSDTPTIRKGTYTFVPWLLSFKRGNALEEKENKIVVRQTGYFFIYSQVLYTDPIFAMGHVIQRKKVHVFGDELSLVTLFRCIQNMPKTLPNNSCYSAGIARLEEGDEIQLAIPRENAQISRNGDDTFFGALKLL

## BAFF-R:Fc (BAFF-R Fc fusion protein) (from UniProt Q96RJ3 2-71)
  B cell surface IgG2a/b expression (MFI, flow cytometry) in wildtype mice after BAFF-R:Fc treatment: 1.7 fold
  NF-κB2 transcription in spleen of wildtype mice, 2 days after i.p. BAFF-R:Fc (Affymetrix microarray): 1.82 fold
